Molecular target: Kuenenia stuttgartiensis hydrazine dehydrogenase (Kuenenia stuttgartiensis) (UniProt Q1PW30)
Assay: crystal structure

UniProt Q1PW30, sequence (Q1PW30 33-582): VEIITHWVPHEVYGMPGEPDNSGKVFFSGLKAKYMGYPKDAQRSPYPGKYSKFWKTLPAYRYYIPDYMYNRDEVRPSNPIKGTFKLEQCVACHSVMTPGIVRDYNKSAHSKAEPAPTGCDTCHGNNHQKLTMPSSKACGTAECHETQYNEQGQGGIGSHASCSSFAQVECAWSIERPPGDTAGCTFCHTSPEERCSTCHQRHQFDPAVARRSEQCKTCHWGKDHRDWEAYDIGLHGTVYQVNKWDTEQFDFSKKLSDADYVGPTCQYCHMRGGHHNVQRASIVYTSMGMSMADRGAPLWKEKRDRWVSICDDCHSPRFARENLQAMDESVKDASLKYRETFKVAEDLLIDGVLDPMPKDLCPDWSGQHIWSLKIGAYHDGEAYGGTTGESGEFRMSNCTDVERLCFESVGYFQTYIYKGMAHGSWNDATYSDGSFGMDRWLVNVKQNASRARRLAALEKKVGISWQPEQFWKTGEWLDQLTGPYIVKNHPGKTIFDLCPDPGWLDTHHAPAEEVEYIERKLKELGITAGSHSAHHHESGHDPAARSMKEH

In the case of “Kustc1130, endogenous, co-purified with K. stuttgartiensis HDH (from UniProt Q1PW30 33-582) (natural protein)”, the stoichiometry N (copies per assembly of 24 HDH monomers) is reported as 12.
